Reference: US9751932B2, “Anti-big-endothelin-1 (big-ET-1) antibodies and uses thereof” (Regeneron Pharmaceuticals, Inc., priority 2012, dated 2017)

T1: human big-ET-1 (SEQ ID NO:434) (Homo sapiens, UniProt P05305)
T1 sequence (P05305 53-90 limits assumed): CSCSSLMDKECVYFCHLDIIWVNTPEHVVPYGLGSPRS

T2: mouse big-ET-1 (SEQ ID NO:437) (Mus musculus, UniProt P22387)
T2 sequence (P22387 53-91 limits assumed): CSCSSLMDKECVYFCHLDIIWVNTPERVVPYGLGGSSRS


Key:
[1] = molecular target: T1, human big-ET-1 (SEQ ID NO:434); experiment: Surface plasmon resonance (Biacore) binding, mAb capture format, 37° C.; settings: for ka / kd: analyte human big-ET-1, mAb capture
Protocol: (§1) Measurements were conducted on a T200 Biacore instrument (Biacore Life Sciences division of GE Healthcare, Piscataway, N.J.). […] Different concentrations of small-ET-1 (SEQ ID NO:435), human big-ET-1 (SEQ ID NO:434) or mouse big-ET-1 (SEQ ID NO:437) were injected over the anti-big-ET-1 captured surfaces at a flow rate of 100 μl/min. Peptide binding was monitored for 3 min while dissociation of mAb-bound peptide was monitored for 4 min in HBST running buffer (0.01 M HEPES pH 7.4, 0.15 M NaCl, 3 mM EDTA, 0.005% v/v Surfactant P20). Kinetic association (ka) and dissociation (kd) rate constants were determined by processing and fitting the data to a 1:1 binding model using Scrubber 2.0 curve fitting software.

[2] = molecular target: T2, mouse big-ET-1 (SEQ ID NO:437); experiment: as above; settings: for ka / kd / Kd: analyte mouse big-ET-1, mAb capture; for Kd: KD=kd/ka
Protocol: as §1

Molecule	ka [1]	kd [1]	ka [2]	kd [2]	binding to human big-ET-1 (in words) [1]	binding to mouse big-ET-1 (in words) [2]	Kd [2]
H4H6323P: anti-big-ET-1 antibody, human IgG4 Fc; HCVR/LCVR SEQ ID NO: 146/154 (antibody, V domains shown, human IgG4 Fc) VH: QITLKESGPPLVKPTQTLTLTCTFSGFSLNTNGMGVGWIRQPPGKALEWLTLIYWNDDKRYSPSLKTRLTITKDTSKNQVVLTMTNMDPVDTATYYCARFGSGTYWGQGTLVTVSS VL: DIVMTQSPLSLPVTPGEPASISCRSSQSLLHSYGYNFLDWFLQKPGQSPQLLIYLGSHRASGVPDRFSGSGSGTDFTLKISRVEAEDVGVYYCMQALQTPLTFGGGTKVEIK	565000 M/s	0.00569 s⁻¹	580000 M/s	0.0192 s⁻¹	–	–	–
H1M6492N: anti-big-ET-1 hybridoma antibody, H1M Fc; HCVR/LCVR SEQ ID NO: 34/42 (antibody, V domains shown, mouse Fc) VH: EVQLVESGGGLVKPGGSLRVSCVASGFTFSNAWMTWVRQTPGKGLECVGRIKSRTDGGTVDYVAPVKGRFTISRDDSKNTLYLQMNSLKAEDTAVYYCRADLDYWGQGTLVTVSS VL: DVVMTQSPLSLPVSLGQPASISCRSSQSLVHSDGITYLNWFQQRPGQSPRRLIYKISNRDSGVPDRFSGSGSGTDFTLKFSRVEAEDVGVYFCMQGTHWPYTFGQGTKLEIK	248000 M/s	0.0016 s⁻¹	–	–	high affinity binding	did not show any binding	> 1 µM
H1M6494N: anti-big-ET-1 hybridoma antibody, H1M Fc; HCVR/LCVR SEQ ID NO: 50/58 (antibody, V domains shown, mouse Fc) VH: EVQLVESGGGLVKPGGSLRVSCVASGFTFSNAWMTWVRQTPGKGLECVGRIKSRTDGGTVDYVAPVKGRFTISRDDSKNTLYLQMNSLKAEDTAVYYCRADLDYWGQGTLVTVSS VL: DVVMTQSPLSLPVSLGQPASISCRSSQSLVHSDGITYLNWFQQRPGQSPRRLIYKISNRDSGVPDRFSGSGSGTDFTLKFSRVEAEDVGVYFCMQGTHWPYTFGQGTKLEIK	239000 M/s	0.00169 s⁻¹	–	–	high affinity binding	did not show any binding	> 1 µM
H4H6317P: anti-big-ET-1 antibody, human IgG4 Fc; HCVR/LCVR SEQ ID NO: 130/138 (antibody, V domains shown, human IgG4 Fc) VH: QVQLVESGGGVVQPGRSLRLSCAASGFTFSSYGMHWVRQAPGKGLEWVAVLWYDGRNKYYADSVKGRFTISRDNSKNTLYLQMNSLRAEDTAVYYCARSYDAFDIWGQGTMVTVSS VL: DIQMTQSPSTLSASVGDRVTITCRASQSISSWLAWFQQGPGRAPKLLIYKASTLQSGVPSRFSGSGSGTEFTLTISSLQPDDFATYYCQQYRSYSPTFGQGTKVEIK	36700 M/s	0.000199 s⁻¹	–	–	high affinity binding	did not show any binding	> 1 µM

Now from value to molecule:

ka [1]	kd [1]	ka [2]	kd [2]	binding to human big-ET-1 (in words) [1]	binding to mouse big-ET-1 (in words) [2]	Kd [2]	Molecule
1.14e+06 M/s	0.00116 s⁻¹	2900 M/s	0.00236 s⁻¹	–	–	–	H4H6353P: anti-big-ET-1 antibody, human IgG4 Fc; HCVR/LCVR SEQ ID NO: 386/394 (antibody, V domains shown, human IgG4 Fc) VH: EVQLVESGGGLVKPGGSLRLSCAASGFSFNYAWMSWVRQAPGKGLEWIGRIKSKINGGTTDYTAPVKGRFTISRDDSKNTLYLQMNSLKTEDTAVYYCRGDEDFWGQGTLVTVSS VL: DVVMTQSPLSLPVTLGQPASISCRSSQSLVYSDGFTYLNWFRQRPGQSPRRLIYKVSNRDSGVPDRFSGSGSGTDFTLRISRVEAEDVGIYYCMQGTHWPYTFGQGTKLEIK
595000 M/s	0.000176 s⁻¹	11600 M/s	0.000223 s⁻¹	–	–	–	H4H6329P: anti-big-ET-1 antibody, human IgG4 Fc; HCVR/LCVR SEQ ID NO: 194/202 (antibody, V domains shown, human IgG4 Fc) VH: QVQLVESGGGVVQPGRSLRLSCAASGFTFGSYGMHWVRQAPGKGLEWVAVIWYDGSDEYYTDSVKGRFTVSRDNSKYTLYLQMNSLRADDTAVYYCARDGYRTRGNYFDYWGQGTLVTVSS VL: DVVMTQSPLSLPVALGQPASISCRSSQSLVYSDGNTYLNWFQQRPGQSPRRLIYKVSNRDSGVPDRFGGSGSGTDFTLKISRVEAEDVGLYYCMQGTHWPPTFGGGTKVEIK
1.42e+06 M/s	0.0324 s⁻¹	1.5e+06 M/s	0.072 s⁻¹	–	–	–	H4H6330P: anti-big-ET-1 antibody, human IgG4 Fc; HCVR/LCVR SEQ ID NO: 210/218 (antibody, V domains shown, human IgG4 Fc) VH: EVQLVESGGGLVQPGGSLRLSCAASGFTFSNYAMSWVRQAPGKGLEWVSAVSGSGVGTYYADSVKGRFTISRDNSKNTLYLQMKSLSAEDTALYYCTKTLGGTHAFDIWGQGTMVTVSS VL: DIQMTQSPSTLSASVGDRVTITCRASQSISRWLAWYQQKPGKAPKLLIYKASSLESGVPSRFSGSGSGTEFTVTINSLQPDDFATYYCQQYNSYSSFGQGTKLEIK
663000 M/s	0.058 s⁻¹	1.5e+06 M/s	0.0974 s⁻¹	–	–	–	H4H6345P: anti-big-ET-1 antibody, human IgG4 Fc; HCVR/LCVR SEQ ID NO: 354/362 (antibody, V domains shown, human IgG4 Fc) VH: EVQLVESGGGLVQPGGSLRLSCAASGFIFSSYAMTWVRQAPGKGLEWVSAISGSGVSTYYADSVKGRFTISRDNSKNTLYLQMNSLRIEDTAVYYCGKARTGTHAFDIWGQGTMVTVSS VL: DIQMTQSPSTLSASVGDRVTITCRASQSISRWLAWYQQKPGKAPKLLIYKASSLETGVPSRFSGSGSGTEFTLTISSLQPDDFGTYYCQQYNSYSSFGPGTKVDIK
